We go through four molecules from PMC7744550, “Structurally distinct telomere-binding proteins in Ustilago maydis execute non-overlapping functions in telomere replication, recombination, and protection”.

One may read the Kd as the constant that tells how readily two partners part at equilibrium. Low values mean higher affinity, high ones lower affinity.

Series [1] deals with T1, Tay1-FG (Ustilago maydis) (UniProt A0A0D1CTG7).
T1 sequence: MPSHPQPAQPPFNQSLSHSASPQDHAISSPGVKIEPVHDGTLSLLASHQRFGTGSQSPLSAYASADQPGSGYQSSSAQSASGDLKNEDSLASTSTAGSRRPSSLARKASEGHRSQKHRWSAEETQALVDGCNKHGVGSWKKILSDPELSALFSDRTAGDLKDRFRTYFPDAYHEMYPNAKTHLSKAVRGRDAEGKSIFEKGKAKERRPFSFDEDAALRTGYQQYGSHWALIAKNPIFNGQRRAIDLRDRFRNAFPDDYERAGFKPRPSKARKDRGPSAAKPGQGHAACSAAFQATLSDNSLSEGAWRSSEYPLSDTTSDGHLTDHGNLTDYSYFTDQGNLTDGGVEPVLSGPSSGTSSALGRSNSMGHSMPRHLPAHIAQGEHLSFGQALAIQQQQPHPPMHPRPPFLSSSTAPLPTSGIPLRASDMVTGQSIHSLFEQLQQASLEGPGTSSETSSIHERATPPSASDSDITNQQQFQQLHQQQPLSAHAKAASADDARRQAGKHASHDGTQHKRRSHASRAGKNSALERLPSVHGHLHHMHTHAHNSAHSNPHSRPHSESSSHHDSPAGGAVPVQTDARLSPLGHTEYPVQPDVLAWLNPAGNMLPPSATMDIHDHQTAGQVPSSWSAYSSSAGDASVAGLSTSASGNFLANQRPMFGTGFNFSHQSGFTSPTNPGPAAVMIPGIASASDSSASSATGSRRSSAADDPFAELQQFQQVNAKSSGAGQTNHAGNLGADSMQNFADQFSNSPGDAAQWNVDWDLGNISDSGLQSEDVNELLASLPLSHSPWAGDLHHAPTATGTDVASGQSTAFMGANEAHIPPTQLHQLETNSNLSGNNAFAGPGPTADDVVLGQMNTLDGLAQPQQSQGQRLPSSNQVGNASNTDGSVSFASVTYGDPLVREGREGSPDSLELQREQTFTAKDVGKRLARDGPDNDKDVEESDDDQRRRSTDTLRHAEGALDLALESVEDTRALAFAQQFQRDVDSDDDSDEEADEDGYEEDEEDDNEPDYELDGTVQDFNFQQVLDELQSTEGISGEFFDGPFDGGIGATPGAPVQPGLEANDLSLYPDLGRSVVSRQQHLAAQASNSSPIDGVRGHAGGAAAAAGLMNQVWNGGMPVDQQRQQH
The series is described as follows: EMSA. Conditions: 25 mM HEPES-KOH pH 7.5, 5% glycerol, 3 mM MgCl2, 0.1 mM EDTA, 1 mM DTT, 0.5 µg/µl BSA, 1-10 nM 32P probe, 22 °C 15 min; 6% native PAGE in 0.2x TBE. For orientation: A gel shift assay detects complexes by their altered migration in electrophoresis.

Series [2] deals with T2, Tay1N274-FG (Ustilago maydis) (UniProt A0A0D1CTG7).
T2 sequence: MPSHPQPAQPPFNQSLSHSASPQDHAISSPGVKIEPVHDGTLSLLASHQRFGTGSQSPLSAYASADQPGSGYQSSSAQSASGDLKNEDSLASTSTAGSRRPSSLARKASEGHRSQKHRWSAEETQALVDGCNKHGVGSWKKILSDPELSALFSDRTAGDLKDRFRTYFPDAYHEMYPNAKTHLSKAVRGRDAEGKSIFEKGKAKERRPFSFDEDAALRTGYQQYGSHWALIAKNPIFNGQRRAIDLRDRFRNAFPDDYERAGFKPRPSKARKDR
The series is described as follows: EMSA. Particulars: 25 mM HEPES-KOH pH 7.5, 5% glycerol, 3 mM MgCl2, 0.1 mM EDTA, 1 mM DTT, 0.5 µg/µl BSA, 1-10 nM 32P probe, 22 °C 15 min; 6% native PAGE in 0.2x TBE.

In series [3] the target is T3, Trf2∆N-FG3 (Ustilago maydis) (UniProt A0A0D1E1Z3).
T3 sequence: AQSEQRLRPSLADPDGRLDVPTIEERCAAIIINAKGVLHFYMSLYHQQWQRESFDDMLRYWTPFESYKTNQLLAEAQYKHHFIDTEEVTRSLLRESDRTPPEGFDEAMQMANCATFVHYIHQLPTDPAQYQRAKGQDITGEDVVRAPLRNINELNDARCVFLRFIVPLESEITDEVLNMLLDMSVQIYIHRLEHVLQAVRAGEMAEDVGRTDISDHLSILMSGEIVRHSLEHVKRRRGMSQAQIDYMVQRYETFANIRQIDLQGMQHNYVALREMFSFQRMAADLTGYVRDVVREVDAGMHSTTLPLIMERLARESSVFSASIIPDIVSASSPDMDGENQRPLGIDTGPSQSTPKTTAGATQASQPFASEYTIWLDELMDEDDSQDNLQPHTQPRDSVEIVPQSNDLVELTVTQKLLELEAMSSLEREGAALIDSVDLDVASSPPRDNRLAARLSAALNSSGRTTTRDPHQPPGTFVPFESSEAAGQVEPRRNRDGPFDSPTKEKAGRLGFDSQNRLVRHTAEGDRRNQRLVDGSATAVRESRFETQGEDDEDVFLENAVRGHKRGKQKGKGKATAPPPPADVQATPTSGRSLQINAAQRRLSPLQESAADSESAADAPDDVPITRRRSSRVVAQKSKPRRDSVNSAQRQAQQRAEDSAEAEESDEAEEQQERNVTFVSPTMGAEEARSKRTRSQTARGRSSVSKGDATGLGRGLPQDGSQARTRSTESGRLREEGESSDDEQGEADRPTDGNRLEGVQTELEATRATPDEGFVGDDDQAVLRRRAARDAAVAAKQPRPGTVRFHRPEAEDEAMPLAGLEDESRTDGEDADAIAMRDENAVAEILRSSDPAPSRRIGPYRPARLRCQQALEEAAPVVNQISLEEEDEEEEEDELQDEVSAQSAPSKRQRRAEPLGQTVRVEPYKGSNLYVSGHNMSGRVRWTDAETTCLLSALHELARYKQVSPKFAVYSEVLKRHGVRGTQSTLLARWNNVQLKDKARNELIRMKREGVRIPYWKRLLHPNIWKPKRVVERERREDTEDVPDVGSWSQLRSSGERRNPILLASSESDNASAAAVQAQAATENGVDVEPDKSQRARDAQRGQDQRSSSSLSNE
The series is described as follows: EMSA. Conditions: 25 mM HEPES-KOH pH 7.5, 5% glycerol, 3 mM MgCl2, 0.1 mM EDTA, 1 mM DTT, 0.5 µg/µl BSA, 1-10 nM 32P probe, 22 °C 15 min; 6% native PAGE in 0.2x TBE.

The next series deals with Tay1-FG (Ustilago maydis, UniProt A0A0D1CTG7 1-1127). The series is described as follows: competition; unlabeled competitor; 25 mM HEPES-KOH pH 7.5, 5% glycerol, 3 mM MgCl2, 0.1 mM EDTA, 1 mM DTT, 0.5 µg/µl BSA, 1-10 nM 32P probe, 22 °C 15 min; 6% native PAGE in 0.2x TBE. Particulars: protein: recombinant; tags: C-terminal FLAG (His-SUMO cleaved by ULP1); blunt.
For a further series, the target named is Trf2∆N-FG3 (Ustilago maydis, UniProt A0A0D1E1Z3 416-1528). The series is described as follows: EMSA; 25 mM HEPES-KOH pH 7.5, 5% glycerol, 3 mM MgCl2, 0.1 mM EDTA, 1 mM DTT, 0.5 µg/µl BSA, 1-10 nM 32P probe, 22 °C 15 min; 6% native PAGE in 0.2x TBE. Conditions: protein: recombinant; tags: C-terminal FG3 (His-SUMO cleaved by ULP1).

As for “TTAGGGTTAGGGTTAGGGTTAGGG (double strand) [TTAGGG4 ds]”, the Kd in series [1] turned out to be 27 nM; in series [2] it was 130 nM; in series [3], 20 nM. Tay1-FG (natural protein) yielded a helicase activity of Blm (12.5 nM) on a non-telomeric DNA substrate with Tay1 at 0, 10, 30 and 90 nM with Blm-FG (Ustilago maydis) of 2.5 fold.

B1: CgTEL (dsDNA)
DNA 1: TGGGGTCTGGGTGCTG
DNA 2: CAGCACCCAGACCCCA
Regarding B1, in the series with Tay1-FG, the binding result is reported as “no binding”. As for TTAGGGTTAGGGTTAGGGTTAGGG (ssDNA) [TTAGGG4 G-strand], the binding result with Trf2∆N-FG3 is reported as “no binding”.
